For 54 molecules, Ho/Con_2aR results are on record in patent US20180155451A1 (published 2018).

T1: FcγRIIa R (extracellular domain with a His tag at the C terminus) (human, UniProt P12318 34-217)
T1 construct: extracellular domain; expressed in FreeStyle293 cells; also called FcgRIIa R; FcγRIIa type R; not shown: His tag at the C terminus
T1 sequence (looked up): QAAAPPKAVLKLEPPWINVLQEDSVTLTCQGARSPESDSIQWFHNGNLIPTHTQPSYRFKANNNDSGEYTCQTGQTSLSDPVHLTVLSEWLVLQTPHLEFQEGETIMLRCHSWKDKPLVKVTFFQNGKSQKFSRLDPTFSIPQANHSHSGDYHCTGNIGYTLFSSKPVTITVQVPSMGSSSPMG

B1: GpH7-B3 variant S337_02A/GpL16-k0 (antibody, human IgG1, kappa)
heavy: not shown
light: DIVMTQSPLSLPVTPGEPASISCQASESLVHSNRNTYLHWYLQKPGQSPQLLIYKVSNRFSGVPDRFSGSGSGTDFTLKISRVEAEDVGVYYCSQNTHVPPTFGQGTKVEIERTVAAPSVFIFPPSDEQLKSGTASVVCLLNNFYPREAKVQWKVDNALQSGNSQESVTEQDSKDSTYSLSSTLTLSKADYEKHKVYACEVTHQGLSSPVTKSFNRGEC
notes: homodimerized; mutation in both H chains; also called Ho Ab
B2: GpH7-B3 variant S267_19Q/GpL16-k0 (antibody, human IgG1, kappa)
heavy: not shown
light: B1 light
notes: as for B1
B3: GpH7-B3 variant G237_04F/GpL16-k0 (antibody, human IgG1, kappa)
heavy: not shown
light: B1 light
notes: as for B1
B4: GpH7-B3 variant K326_15Y/GpL16-k0 (antibody, human IgG1, kappa)
heavy: not shown
light: B1 light
notes: as for B1
B5: GpH7-B3 variant S324_06M/GpL16-k0 (antibody, human IgG1, kappa)
heavy: not shown
light: B1 light
notes: as for B1
B6: GpH7-B3 variant H268_01G/GpL16-k0 (antibody, human IgG1, kappa)
heavy: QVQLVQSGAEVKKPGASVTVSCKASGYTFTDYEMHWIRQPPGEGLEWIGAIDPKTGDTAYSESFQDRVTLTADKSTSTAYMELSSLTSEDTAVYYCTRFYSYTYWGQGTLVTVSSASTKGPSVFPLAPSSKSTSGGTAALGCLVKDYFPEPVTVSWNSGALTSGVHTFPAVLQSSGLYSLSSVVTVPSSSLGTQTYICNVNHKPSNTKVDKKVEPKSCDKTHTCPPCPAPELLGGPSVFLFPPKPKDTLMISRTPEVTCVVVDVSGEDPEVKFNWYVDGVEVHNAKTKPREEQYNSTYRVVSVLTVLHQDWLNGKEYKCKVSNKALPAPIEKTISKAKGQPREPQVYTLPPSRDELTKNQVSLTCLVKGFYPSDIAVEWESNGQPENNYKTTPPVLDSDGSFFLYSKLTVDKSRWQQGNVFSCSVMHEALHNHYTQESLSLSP
light: B1 light
notes: as for B1
B7: GpH7-B3 variant K326_03V/GpL16-k0 (antibody, human IgG1, kappa)
heavy: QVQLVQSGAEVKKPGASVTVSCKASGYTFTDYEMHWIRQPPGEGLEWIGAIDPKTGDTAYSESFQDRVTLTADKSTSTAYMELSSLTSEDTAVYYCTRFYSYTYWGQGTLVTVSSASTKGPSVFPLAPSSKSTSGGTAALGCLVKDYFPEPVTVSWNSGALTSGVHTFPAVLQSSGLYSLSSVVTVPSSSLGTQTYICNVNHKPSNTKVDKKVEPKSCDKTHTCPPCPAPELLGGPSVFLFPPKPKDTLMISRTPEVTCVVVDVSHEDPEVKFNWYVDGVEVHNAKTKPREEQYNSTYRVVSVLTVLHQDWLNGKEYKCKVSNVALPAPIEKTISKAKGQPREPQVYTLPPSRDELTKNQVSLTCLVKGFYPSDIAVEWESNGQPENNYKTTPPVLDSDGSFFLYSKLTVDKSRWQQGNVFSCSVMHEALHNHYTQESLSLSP
light: B1 light
notes: as for B1
B8: GpH7-B3 variant S337_19Q/GpL16-k0 (antibody, human IgG1, kappa)
heavy: not shown
light: B1 light
notes: as for B1
B9: GpH7-B3 variant K326_04F/GpL16-k0 (antibody, human IgG1, kappa)
heavy: not shown
light: B1 light
notes: as for B1
B10: GpH7-B3 variant G237_20W/GpL16-k0 (antibody, human IgG1, kappa)
heavy: not shown
light: B1 light
notes: as for B1
B11: GpH7-B3 variant S337_16H/GpL16-k0 (antibody, human IgG1, kappa)
heavy: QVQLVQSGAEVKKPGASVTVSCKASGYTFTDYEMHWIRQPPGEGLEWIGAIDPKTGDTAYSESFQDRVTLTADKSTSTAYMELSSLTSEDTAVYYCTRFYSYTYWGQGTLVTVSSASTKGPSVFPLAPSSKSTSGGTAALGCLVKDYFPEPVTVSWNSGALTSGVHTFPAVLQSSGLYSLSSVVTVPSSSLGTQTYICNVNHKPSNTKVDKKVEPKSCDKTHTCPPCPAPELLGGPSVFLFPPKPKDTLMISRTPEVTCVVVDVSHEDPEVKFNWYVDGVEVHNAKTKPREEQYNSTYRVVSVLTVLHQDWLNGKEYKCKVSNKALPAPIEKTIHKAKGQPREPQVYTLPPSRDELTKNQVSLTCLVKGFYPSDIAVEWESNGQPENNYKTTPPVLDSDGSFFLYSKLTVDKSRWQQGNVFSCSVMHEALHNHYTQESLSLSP
light: B1 light
notes: as for B1
B12: GpH7-B3 variant I336_08L/GpL16-k0 (antibody, human IgG1, kappa)
heavy: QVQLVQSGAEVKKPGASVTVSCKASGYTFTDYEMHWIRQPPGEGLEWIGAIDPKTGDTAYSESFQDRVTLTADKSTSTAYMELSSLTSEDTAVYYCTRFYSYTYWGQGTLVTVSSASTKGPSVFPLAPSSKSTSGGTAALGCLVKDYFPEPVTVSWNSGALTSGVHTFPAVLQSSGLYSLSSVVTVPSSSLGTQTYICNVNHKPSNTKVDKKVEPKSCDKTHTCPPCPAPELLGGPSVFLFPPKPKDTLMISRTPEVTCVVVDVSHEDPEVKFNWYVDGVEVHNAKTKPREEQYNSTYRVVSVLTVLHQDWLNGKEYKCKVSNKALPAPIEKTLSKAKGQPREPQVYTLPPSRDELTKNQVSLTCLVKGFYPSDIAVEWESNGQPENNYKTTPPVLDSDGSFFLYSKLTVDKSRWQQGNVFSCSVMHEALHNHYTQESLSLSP
light: B1 light
notes: as for B1
B13: GpH7-B3 variant I332_06M/GpL16-k0 (antibody, human IgG1, kappa)
heavy: not shown
light: B1 light
notes: as for B1
B14: GpH7-B3 variant S337_07I/GpL16-k0 (antibody, human IgG1, kappa)
heavy: not shown
light: B1 light
notes: as for B1
B15: GpH7-B3 variant K334_13S/GpL16-k0 (antibody, human IgG1, kappa)
heavy: not shown
light: B1 light
notes: as for B1
B16: GpH7-B3 variant P271_08L/GpL16-k0 (antibody, human IgG1, kappa)
heavy: not shown
light: B1 light
notes: as for B1
B17: GpH7-B3 variant L328_13S/GpL16-k0 (antibody, human IgG1, kappa)
heavy: not shown
light: B1 light
notes: as for B1
B18: GpH7-B3 variant S267_09D/GpL16-k0 (antibody, human IgG1, kappa)
heavy: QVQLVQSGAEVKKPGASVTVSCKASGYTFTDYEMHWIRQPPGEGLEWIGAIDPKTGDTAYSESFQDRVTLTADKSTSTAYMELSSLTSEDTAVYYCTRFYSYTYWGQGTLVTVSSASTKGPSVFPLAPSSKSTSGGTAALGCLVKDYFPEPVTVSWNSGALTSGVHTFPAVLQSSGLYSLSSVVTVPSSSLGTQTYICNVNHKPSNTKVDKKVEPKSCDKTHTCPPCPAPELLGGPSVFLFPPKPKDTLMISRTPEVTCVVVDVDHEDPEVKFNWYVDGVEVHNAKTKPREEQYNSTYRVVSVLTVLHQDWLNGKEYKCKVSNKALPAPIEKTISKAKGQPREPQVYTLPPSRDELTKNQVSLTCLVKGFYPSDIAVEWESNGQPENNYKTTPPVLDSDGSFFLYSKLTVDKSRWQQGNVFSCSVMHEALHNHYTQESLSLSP
light: B1 light
notes: as for B1
B19: GpH7-B3 variant K326_20W/GpL16-k0 (antibody, human IgG1, kappa)
heavy: not shown
light: B1 light
notes: as for B1
B20: GpH7-B3 variant S298_08L/GpL16-k0 (antibody, human IgG1, kappa)
heavy: not shown
light: B1 light
notes: as for B1
B21: GpH7-B3 variant S239_18N/GpL16-k0 (antibody, human IgG1, kappa)
heavy: not shown
light: B1 light
notes: as for B1
B22: GpH7-B3 variant P331_16H/GpL16-k0 (antibody, human IgG1, kappa)
heavy: not shown
light: B1 light
notes: as for B1
B23: GpH7-B3 variant K334_04F/GpL16-k0 (antibody, human IgG1, kappa)
heavy: not shown
light: B1 light
notes: as for B1
B24: GpH7-B3 variant S337_18N/GpL16-k0 (antibody, human IgG1, kappa)
heavy: not shown
light: B1 light
notes: as for B1
B25: GpH7-B3 variant P331_04F/GpL16-k0 (antibody, human IgG1, kappa)
heavy: not shown
light: B1 light
notes: as for B1
B26: GpH7-B3 variant K334_08L/GpL16-k0 (antibody, human IgG1, kappa)
heavy: not shown
light: B1 light
notes: as for B1
B27: GpH7-B3 variant K326_08L/GpL16-k0 (antibody, human IgG1, kappa)
heavy: not shown
light: B1 light
notes: as for B1
B28: GpH7-B3 variant S337_20W/GpL16-k0 (antibody, human IgG1, kappa)
heavy: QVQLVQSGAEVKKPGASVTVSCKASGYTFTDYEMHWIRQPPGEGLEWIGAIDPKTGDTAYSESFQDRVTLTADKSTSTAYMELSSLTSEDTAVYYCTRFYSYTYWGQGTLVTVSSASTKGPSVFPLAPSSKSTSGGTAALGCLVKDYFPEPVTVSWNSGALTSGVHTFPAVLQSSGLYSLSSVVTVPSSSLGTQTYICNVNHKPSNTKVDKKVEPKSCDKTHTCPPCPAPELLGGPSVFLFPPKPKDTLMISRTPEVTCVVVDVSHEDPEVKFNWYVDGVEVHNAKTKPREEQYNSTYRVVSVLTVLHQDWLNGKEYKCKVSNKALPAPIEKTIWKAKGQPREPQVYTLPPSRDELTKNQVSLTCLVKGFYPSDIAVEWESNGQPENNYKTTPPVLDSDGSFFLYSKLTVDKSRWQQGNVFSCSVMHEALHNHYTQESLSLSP
light: B1 light
notes: as for B1
B29: GpH7-B3 variant L235_20W/GpL16-k0 (antibody, human IgG1, kappa)
heavy: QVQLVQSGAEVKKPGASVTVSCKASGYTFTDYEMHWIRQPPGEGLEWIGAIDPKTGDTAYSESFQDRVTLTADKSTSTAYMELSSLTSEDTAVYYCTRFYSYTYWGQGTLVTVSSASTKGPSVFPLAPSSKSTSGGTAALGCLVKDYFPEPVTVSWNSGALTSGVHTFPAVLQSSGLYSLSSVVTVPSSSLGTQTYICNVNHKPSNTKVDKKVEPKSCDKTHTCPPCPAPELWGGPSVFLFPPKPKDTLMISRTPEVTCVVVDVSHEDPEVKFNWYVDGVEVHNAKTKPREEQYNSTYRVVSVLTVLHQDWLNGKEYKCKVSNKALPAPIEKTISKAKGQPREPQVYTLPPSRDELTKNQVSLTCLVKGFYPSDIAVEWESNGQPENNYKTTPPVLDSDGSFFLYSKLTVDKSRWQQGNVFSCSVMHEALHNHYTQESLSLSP
light: B1 light
notes: as for B1
B30: GpH7-B3 variant K334_19Q/GpL16-k0 (antibody, human IgG1, kappa)
heavy: not shown
light: B1 light
notes: as for B1
B31: GpH7-B3 variant P331_20W/GpL16-k0 (antibody, human IgG1, kappa)
heavy: not shown
light: B1 light
notes: as for B1
B32: GpH7-B3 variant A327_10E/GpL16-k0 (antibody, human IgG1, kappa)
heavy: not shown
light: B1 light
notes: as for B1
B33: GpH7-B3 variant S337_06M/GpL16-k0 (antibody, human IgG1, kappa)
heavy: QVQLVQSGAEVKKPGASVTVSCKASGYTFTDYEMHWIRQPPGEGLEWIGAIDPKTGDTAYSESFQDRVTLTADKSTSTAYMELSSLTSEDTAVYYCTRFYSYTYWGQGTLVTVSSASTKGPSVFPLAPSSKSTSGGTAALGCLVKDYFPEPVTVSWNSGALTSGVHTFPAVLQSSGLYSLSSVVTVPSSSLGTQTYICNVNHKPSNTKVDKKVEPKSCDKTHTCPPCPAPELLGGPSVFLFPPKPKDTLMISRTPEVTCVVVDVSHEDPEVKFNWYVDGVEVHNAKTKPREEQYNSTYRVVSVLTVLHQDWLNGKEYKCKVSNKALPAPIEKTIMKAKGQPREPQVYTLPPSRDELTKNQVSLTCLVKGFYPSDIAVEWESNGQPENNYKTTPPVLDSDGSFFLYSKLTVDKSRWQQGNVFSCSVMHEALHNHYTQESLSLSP
light: B1 light
notes: as for B1
B34: GpH7-B3 variant K326_07I/GpL16-k0 (antibody, human IgG1, kappa)
heavy: not shown
light: B1 light
notes: as for B1
B35: GpH7-B3 variant S337_03V/GpL16-k0 (antibody, human IgG1, kappa)
heavy: not shown
light: B1 light
notes: as for B1
B36: GpH7-B3 variant S337_09D/GpL16-k0 (antibody, human IgG1, kappa)
heavy: not shown
light: B1 light
notes: as for B1
B37: GpH7-B3 variant K334_02A/GpL16-k0 (antibody, human IgG1, kappa)
heavy: not shown
light: B1 light
notes: as for B1
B38: GpH7-B3 variant P331_15Y/GpL16-k0 (antibody, human IgG1, kappa)
heavy: not shown
light: B1 light
notes: as for B1
B39: GpH7-B3 variant L328_14T/GpL16-k0 (antibody, human IgG1, kappa)
heavy: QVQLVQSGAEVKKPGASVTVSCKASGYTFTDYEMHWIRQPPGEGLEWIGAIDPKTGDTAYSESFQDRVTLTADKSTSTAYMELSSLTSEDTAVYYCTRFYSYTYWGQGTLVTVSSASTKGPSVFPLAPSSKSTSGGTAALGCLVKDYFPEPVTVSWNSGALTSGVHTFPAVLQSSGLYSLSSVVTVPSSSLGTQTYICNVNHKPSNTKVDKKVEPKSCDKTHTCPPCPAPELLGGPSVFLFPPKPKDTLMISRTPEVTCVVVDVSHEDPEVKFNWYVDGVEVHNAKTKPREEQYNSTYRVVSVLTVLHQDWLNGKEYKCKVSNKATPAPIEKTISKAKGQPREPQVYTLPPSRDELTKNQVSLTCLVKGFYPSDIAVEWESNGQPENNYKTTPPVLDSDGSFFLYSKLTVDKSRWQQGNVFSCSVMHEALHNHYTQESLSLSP
light: B1 light
notes: as for B1
B40: GpH7-B3 variant S239_10E/GpL16-k0 (antibody, human IgG1, kappa)
heavy: not shown
light: B1 light
notes: as for B1
B41: GpH7-B3 variant S337_15Y/GpL16-k0 (antibody, human IgG1, kappa)
heavy: not shown
light: B1 light
notes: as for B1
B42: GpH7-B3 variant S239_08L/GpL16-k0 (antibody, human IgG1, kappa)
heavy: not shown
light: B1 light
notes: as for B1
B43: GpH7-B3 variant S337_10E/GpL16-k0 (antibody, human IgG1, kappa)
heavy: not shown
light: B1 light
notes: as for B1
B44: GpH7-B3 variant A330_12R/GpL16-k0 (antibody, human IgG1, kappa)
heavy: not shown
light: B1 light
notes: as for B1
B45: GpH7-B3 variant A327_09D/GpL16-k0 (antibody, human IgG1, kappa)
heavy: not shown
light: B1 light
notes: as for B1
B46: GpH7-B3 variant K334_05P/GpL16-k0 (antibody, human IgG1, kappa)
heavy: not shown
light: B1 light
notes: as for B1
B47: GpH7-B3 variant P238_03V/GpL16-k0 (antibody, human IgG1, kappa)
heavy: not shown
light: B1 light
notes: as for B1
B48: GpH7-B3 variant P238_04F/GpL16-k0 (antibody, human IgG1, kappa)
heavy: not shown
light: B1 light
notes: as for B1
B49: GpH7-B3 variant S267_03V/GpL16-k0 (antibody, human IgG1, kappa)
heavy: not shown
light: B1 light
notes: as for B1
B50: GpH7-B3 variant A330_01G/GpL16-k0 (antibody, human IgG1, kappa)
heavy: not shown
light: B1 light
notes: as for B1
B51: GpH7-B3 variant S267_06M/GpL16-k0 (antibody, human IgG1, kappa)
heavy: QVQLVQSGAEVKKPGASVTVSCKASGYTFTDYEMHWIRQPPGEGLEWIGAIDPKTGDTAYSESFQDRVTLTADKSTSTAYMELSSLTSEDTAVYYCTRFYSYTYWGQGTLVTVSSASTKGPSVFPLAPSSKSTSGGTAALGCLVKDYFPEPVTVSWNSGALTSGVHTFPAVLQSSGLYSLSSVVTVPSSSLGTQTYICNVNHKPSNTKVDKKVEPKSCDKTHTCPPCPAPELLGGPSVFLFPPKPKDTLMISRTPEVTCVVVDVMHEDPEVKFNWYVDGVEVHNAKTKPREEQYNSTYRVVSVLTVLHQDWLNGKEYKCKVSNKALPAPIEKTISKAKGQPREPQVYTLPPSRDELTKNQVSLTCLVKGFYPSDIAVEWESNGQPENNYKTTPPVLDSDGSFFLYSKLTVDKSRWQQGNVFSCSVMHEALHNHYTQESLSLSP
light: B1 light
notes: as for B1
B52: GpH7-B3 variant K334_10E/GpL16-k0 (antibody, human IgG1, kappa)
heavy: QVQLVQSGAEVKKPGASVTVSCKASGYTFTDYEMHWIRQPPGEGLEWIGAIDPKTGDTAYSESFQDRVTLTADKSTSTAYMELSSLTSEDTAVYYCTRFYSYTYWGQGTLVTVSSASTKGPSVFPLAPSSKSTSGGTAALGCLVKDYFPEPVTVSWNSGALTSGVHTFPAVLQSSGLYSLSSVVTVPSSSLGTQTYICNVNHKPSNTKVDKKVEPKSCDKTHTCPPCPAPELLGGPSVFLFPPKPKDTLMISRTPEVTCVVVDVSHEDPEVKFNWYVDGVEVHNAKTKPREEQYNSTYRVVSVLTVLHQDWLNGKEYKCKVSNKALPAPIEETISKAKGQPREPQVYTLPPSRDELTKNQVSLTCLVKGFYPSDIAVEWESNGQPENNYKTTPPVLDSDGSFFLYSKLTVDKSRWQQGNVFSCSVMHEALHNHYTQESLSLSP
light: B1 light
notes: as for B1
B53: GpH7-B3 variant P331_02A/GpL16-k0 (antibody, human IgG1, kappa)
heavy: not shown
light: B1 light
notes: as for B1
B54: GpH7-B3 variant T335_02A/GpL16-k0 (antibody, human IgG1, kappa)
heavy: not shown
light: B1 light
notes: as for B1

This assay deals with T1, FcγRIIa R (extracellular domain with a …). Description: SPR Biacore, relative binding.
Consider B1, for which the Ho/Con_2aR was 102 % of GpH7-B3/GpL16-k0 (=100). For B2 the value was 110 % of GpH7-B3/GpL16-k0 (=100); for B3, 113 % of GpH7-B3/GpL16-k0 (=100); for B4, 134 % of GpH7-B3/GpL16-k0 (=100).

B5: the Ho/Con_2aR was 118 % of GpH7-B3/GpL16-k0 (=100). On to B6, for which the Ho/Con_2aR is 122 % of GpH7-B3/GpL16-k0 (=100).

With B7, the Ho/Con_2aR was 139 % of GpH7-B3/GpL16-k0 (=100). As for B8, the Ho/Con_2aR was 102 % of GpH7-B3/GpL16-k0 (=100). Consider B9, for which the Ho/Con_2aR is 133 % of GpH7-B3/GpL16-k0 (=100). The same measure for B10: 107 % of GpH7-B3/GpL16-k0 (=100); for B11: 107 % of GpH7-B3/GpL16-k0 (=100). For the molecule B12, the Ho/Con_2aR was 105 % of GpH7-B3/GpL16-k0 (=100). Turning to B13, the Ho/Con_2aR is 105 % of GpH7-B3/GpL16-k0 (=100).

Turning to B14, the Ho/Con_2aR is 103 % of GpH7-B3/GpL16-k0 (=100). As to B15, the Ho/Con_2aR was 106 % of GpH7-B3/GpL16-k0 (=100). For B16 the value was 102 % of GpH7-B3/GpL16-k0 (=100); for B17, 108 % of GpH7-B3/GpL16-k0 (=100). As for B18, the Ho/Con_2aR is 167 % of GpH7-B3/GpL16-k0 (=100). The same measure for B19: 120 % of GpH7-B3/GpL16-k0 (=100); for B20: 101 % of GpH7-B3/GpL16-k0 (=100); for B21: 103 % of GpH7-B3/GpL16-k0 (=100). In the case of B22, the Ho/Con_2aR is 100 % of GpH7-B3/GpL16-k0 (=100). For B23 the value was 110 % of GpH7-B3/GpL16-k0 (=100); for B24, 103 % of GpH7-B3/GpL16-k0 (=100). On to B25, for which the Ho/Con_2aR was 106 % of GpH7-B3/GpL16-k0 (=100). Consider B26, for which the Ho/Con_2aR is 105 % of GpH7-B3/GpL16-k0 (=100). The same measure for B27: 131 % of GpH7-B3/GpL16-k0 (=100); for B28: 105 % of GpH7-B3/GpL16-k0 (=100). The same measure for B29: 114 % of GpH7-B3/GpL16-k0 (=100).

B30: the Ho/Con_2aR was 108 % of GpH7-B3/GpL16-k0 (=100).

Take B31: the Ho/Con_2aR is 102 % of GpH7-B3/GpL16-k0 (=100). Turning to B32, the Ho/Con_2aR was 104 % of GpH7-B3/GpL16-k0 (=100).

Take B33: the Ho/Con_2aR is 101 % of GpH7-B3/GpL16-k0 (=100). For B34 the value was 133 % of GpH7-B3/GpL16-k0 (=100). The same measure for B35: 102 % of GpH7-B3/GpL16-k0 (=100); for B36: 114 % of GpH7-B3/GpL16-k0 (=100); for B37: 100 % of GpH7-B3/GpL16-k0 (=100). For B38, the Ho/Con_2aR was 105 % of GpH7-B3/GpL16-k0 (=100). Take B39: the Ho/Con_2aR was 118 % of GpH7-B3/GpL16-k0 (=100). For B40 the value was 122 % of GpH7-B3/GpL16-k0 (=100); for B41, 100 % of GpH7-B3/GpL16-k0 (=100).

As for B42, the Ho/Con_2aR was 106 % of GpH7-B3/GpL16-k0 (=100). For the molecule B43, the Ho/Con_2aR is 110 % of GpH7-B3/GpL16-k0 (=100). Regarding B44, the Ho/Con_2aR is 101 % of GpH7-B3/GpL16-k0 (=100). For B45 the value was 120 % of GpH7-B3/GpL16-k0 (=100). Consider B46, for which the Ho/Con_2aR is 102 % of GpH7-B3/GpL16-k0 (=100). The same measure for B47: 116 % of GpH7-B3/GpL16-k0 (=100); for B48: 146 % of GpH7-B3/GpL16-k0 (=100); for B49: 115 % of GpH7-B3/GpL16-k0 (=100). As to B50, the Ho/Con_2aR was 106 % of GpH7-B3/GpL16-k0 (=100). The same measure for B51: 102 % of GpH7-B3/GpL16-k0 (=100); for B52: 106 % of GpH7-B3/GpL16-k0 (=100); for B53: 102 % of GpH7-B3/GpL16-k0 (=100). For the molecule B54, the Ho/Con_2aR is 102 % of GpH7-B3/GpL16-k0 (=100).
